Results taken from PMC9352680, “A comprehensive thermodynamic model for RNA binding by the Saccharomyces cerevisiae Pumilio protein PUF4”.

Each binder was assayed against T1, PUF4 RNA-binding domain (Saccharomyces cerevisiae, UniProt P25339 537-888) (assay: Mg; RNA-MaP; 20 mM Na-HEPES pH 7.4, 30 mM KOAc, 0.75 mM MgCl2, 0.1% Tween-20, 5% glycerol, 0.1 mg/mL BSA, 2 mM DTT; 25 C; 0.0125-409.6 nM protein). Conditions: tags: N-His6-TEV cleaved; C-SNAP kept, Cy3B-labelled; label: tethered on chip by stalled RNA polymerase.
T1 sequence: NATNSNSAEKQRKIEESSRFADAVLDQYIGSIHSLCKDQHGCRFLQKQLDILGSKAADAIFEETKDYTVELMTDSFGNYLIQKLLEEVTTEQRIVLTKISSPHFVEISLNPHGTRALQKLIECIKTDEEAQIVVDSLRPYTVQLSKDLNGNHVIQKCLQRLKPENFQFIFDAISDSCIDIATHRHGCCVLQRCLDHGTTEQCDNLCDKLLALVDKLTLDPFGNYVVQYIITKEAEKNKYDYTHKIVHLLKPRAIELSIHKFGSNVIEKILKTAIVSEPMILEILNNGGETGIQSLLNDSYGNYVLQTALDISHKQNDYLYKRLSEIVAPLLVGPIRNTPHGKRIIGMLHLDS

Binder	Kd [nM]
ACAAACCUUUUCCGUAUAUAUAACAAAC (ssRNA) [Ie_S3_P3E.2_K3.1_C3.2_H3.1_[+1TTCC]_A3.1_F3.1_T3.2]	1200
ACAAACUCUCUCGUAUAUUAACAAAC (ssRNA) [Ie_S3_P4E.1_K4.1_C4.1_H4.1_[+1CTCTC]_A4.1_F4.1_T4.1]	69.5
ACAAACUGUAUAUCUCUCUAACAAAC (ssRNA) [Ie_S3_P4E.1_K4.1_C4.1_H4.1_A4.1_[+7CTCTC]_F4.1_T4.1]	14.6
ACAAACUGUCUAUUAUUAACAAAC (ssRNA) [Ie_S3_P5E.1_K5.1_C5.1_H5.1_[+3CT]_A5.1_F5.1_T5.1]	28.6
ACAAACUGUACCCUUUUAUUAACAAAC (ssRNA) [Ie_S3_P5E.1_K5.1_C5.1_H5.1_[+4CCCTT]_A5.1_F5.1_T5.1]	30.4
ACAAACUGCUUUAUAUUAACAAAC (ssRNA) [Ie_S3_P4E.1_K4.1_C4.1_H4.1_[+2CTT]_A4.1_F4.1_T4.1]	896
ACAAACUGUACCUCUUUAUUAACAAAC (ssRNA) [Ie_S3_P5E.1_K5.1_C5.1_H5.1_[+4CCTCT]_A5.1_F5.1_T5.1]	52.5
ACAAACUGUCUCUUAUUAUUAACAAAC (ssRNA) [Ie_S3_P5E.1_K5.1_C5.1_H5.1_[+2TCTCT]_A5.1_F5.1_T5.1]	513
ACAAACUGUCCUAUAUUAACAAAC (ssRNA) [Ie_S3_P4E.1_K4.1_C4.1_H4.1_[+3CCT]_A4.1_F4.1_T4.1]	59.9
Ie_S2_P5E.1_K5.1_C5.1_H5.1_A5.1_F5.1_[+10TT]_T5.1 (ssRNA) RNA: UUUGAUUAAUAUGAUAUCGUUCUUUCUUGUAUUAUUAUUUUCUUUCUCGAUAUCAUAUUAAUCUUU	2.29
ACAAACUGUCUCUAUUAUUAACAAAC (ssRNA) [Ie_S3_P5E.1_K5.1_C5.1_H5.1_[+3CTCT]_A5.1_F5.1_T5.1]	366
ACAAACUCUCGUAUUAUUAACAAAC (ssRNA) [Ie_S3_P5E.1_K5.1_C5.1_H5.1_[+1CTC]_A5.1_F5.1_T5.1]	1830
Ib_S2_P3E.1_K3.1_C3.1_H3.1_[G2T]_[A4T]_A3.1_F3.1_T3.1 (ssRNA) RNA: UUUGAUUAAUAUGAUAUCGUUCUUUCUUUUUUAUAUUCUUUCUCGAUAUCAUAUUAAUCUUU	> 2300
Ib_S2_P3E.1_K3.1_C3.1_H3.1_[T1C]_A3.1_[T5A]_F3.1_T3.1 (ssRNA) RNA: UUUGAUUAAUAUGAUAUCGUUCUUUCUCGUAAAUAUUCUUUCUCGAUAUCAUAUUAAUCUUU	> 2300
Ib_S2_P3E.1_K3.1_C3.1_H3.1_[G2A]_[A4T]_A3.1_F3.1_T3.1 (ssRNA) RNA: UUUGAUUAAUAUGAUAUCGUUCUUUCUUAUUUAUAUUCUUUCUCGAUAUCAUAUUAAUCUUU	> 2300
Ib_S2_P3E.1_K3.1_C3.1_H3.1_[T3C]_[A4G]_A3.1_F3.1_T3.1 (ssRNA) RNA: UUUGAUUAAUAUGAUAUCGUUCUUUCUUGCGUAUAUUCUUUCUCGAUAUCAUAUUAAUCUUU	1100
Ib_S2_P3E.1_K3.1_C3.1_H3.1_[T1A]_A3.1_[T5C]_F3.1_T3.1 (ssRNA) RNA: UUUGAUUAAUAUGAUAUCGUUCUUUCUAGUACAUAUUCUUUCUCGAUAUCAUAUUAAUCUUU	> 2300
ACAAACCUUCCUCGUAUAUAUAACAAAC (ssRNA) [Ie_S3_P3E.2_K3.1_C3.2_H3.1_[+1CCTC]_A3.1_F3.1_T3.2]	565
Ie_S2_P5E.1_K5.1_C5.1_H5.1_A5.1_F5.1_[+9CCTCT]_T5.1 (ssRNA) RNA: UUUGAUUAAUAUGAUAUCGUUCUUUCUUGUAUUAUUCCUCUAUUCUUUCUCGAUAUCAUAUUAAUCUUU	7.72

Binder	Kd [nM]
Ie_S2_P5E.1_K5.1_C5.1_H5.1_A5.1_F5.1_[+10TTCCT]_T5.1 (ssRNA) RNA: UUUGAUUAAUAUGAUAUCGUUCUUUCUUGUAUUAUUAUUCCUUUCUUUCUCGAUAUCAUAUUAAUCUUU	1.84
Ie_S2_P5E.1_K5.1_C5.1_H5.1_A5.1_F5.1_[+10TCTCT]_T5.1 (ssRNA) RNA: UUUGAUUAAUAUGAUAUCGUUCUUUCUUGUAUUAUUAUCUCUUUCUUUCUCGAUAUCAUAUUAAUCUUU	2.21
Ie_S2_P5E.1_K5.1_C5.1_H5.1_A5.1_F5.1_[+9CCCTT]_T5.1 (ssRNA) RNA: UUUGAUUAAUAUGAUAUCGUUCUUUCUUGUAUUAUUCCCUUAUUCUUUCUCGAUAUCAUAUUAAUCUUU	12.8
Ie_S2_P5E.1_K5.1_C5.1_H5.1_A5.1_F5.1_[+9TTCCT]_T5.1 (ssRNA) RNA: UUUGAUUAAUAUGAUAUCGUUCUUUCUUGUAUUAUUUUCCUAUUCUUUCUCGAUAUCAUAUUAAUCUUU	7.79
ACAAACUGCUUAUAUUAACAAAC (ssRNA) [Ie_S3_P4E.1_K4.1_C4.1_H4.1_[+2CT]_A4.1_F4.1_T4.1]	1800
Ie_S2_P5E.1_K5.1_C5.1_H5.1_A5.1_F5.1_[+10T]_T5.1 (ssRNA) RNA: UUUGAUUAAUAUGAUAUCGUUCUUUCUUGUAUUAUUAUUUCUUUCUCGAUAUCAUAUUAAUCUUU	1.76
ACAAACUGCUCUAUAUUAACAAAC (ssRNA) [Ie_S3_P4E.1_K4.1_C4.1_H4.1_[+2CTC]_A4.1_F4.1_T4.1]	1270
ACAAACUGUAUCCCUAUUAACAAAC (ssRNA) [Ie_S3_P5E.1_K5.1_C5.1_H5.1_A5.1_[+5CCC]_F5.1_T5.1]	24.3
ACAAACUGUACCUCUAUUAACAAAC (ssRNA) [Ie_S3_P4E.1_K4.1_C4.1_H4.1_[+4CCTC]_A4.1_F4.1_T4.1]	14.7
ACAAACUGUACCUCUUAUUAACAAAC (ssRNA) [Ie_S3_P5E.1_K5.1_C5.1_H5.1_[+4CCTC]_A5.1_F5.1_T5.1]	27.2
ACAAACUGUAUCUCUCUAUUAACAAAC (ssRNA) [Ie_S3_P5E.1_K5.1_C5.1_H5.1_A5.1_[+5CTCTC]_F5.1_T5.1]	30.4
ACAAACUGUAUAUUAUUCCACAAAC (ssRNA) [Ie_S3_P4E.1_K4.1_C4.1_H4.1_A4.1_F4.1_[+9TTCC]_T4.1]	0.554
ACAAACUGUCCCUAUAUUAACAAAC (ssRNA) [Ie_S3_P4E.1_K4.1_C4.1_H4.1_[+3CCCT]_A4.1_F4.1_T4.1]	602
ACAAACCUUUCGUAUAUAUAACAAAC (ssRNA) [Ie_S3_P3E.2_K3.1_C3.2_H3.1_[+1TC]_A3.1_F3.1_T3.2]	927
ACAAACUGCUUUAUUAUUAACAAAC (ssRNA) [Ie_S3_P5E.1_K5.1_C5.1_H5.1_[+2CTT]_A5.1_F5.1_T5.1]	> 2300
ACAAACCUUGCCCUUUAUAUAUAACAAAC (ssRNA) [Ie_S3_P3E.2_K3.1_C3.2_H3.1_[+2CCCTT]_A3.1_F3.1_T3.2]	1020
ACAAACCUUGCCUCUUAUAUAUAACAAAC (ssRNA) [Ie_S3_P3E.2_K3.1_C3.2_H3.1_[+2CCTCT]_A3.1_F3.1_T3.2]	1010
ACAAACUGUAUAUUCUCUAACAAAC (ssRNA) [Ie_S3_P4E.1_K4.1_C4.1_H4.1_A4.1_[+7TCTC]_F4.1_T4.1]	6.81
ACAAACCUUGCCUUAUAUAUAACAAAC (ssRNA) [Ie_S3_P3E.2_K3.1_C3.2_H3.1_[+2CCT]_A3.1_F3.1_T3.2]	1170

Binder	Kd [nM]
ACAAACUGCCCUAUAUUAACAAAC (ssRNA) [Ie_S3_P4E.1_K4.1_C4.1_H4.1_[+2CCC]_A4.1_F4.1_T4.1]	1560
ACAAACUGUAUCCCUUUAUUAACAAAC (ssRNA) [Ie_S3_P5E.1_K5.1_C5.1_H5.1_A5.1_[+5CCCTT]_F5.1_T5.1]	92.6
ACAAACUGCCUCUAUAUUAACAAAC (ssRNA) [Ie_S3_P4E.1_K4.1_C4.1_H4.1_[+2CCTC]_A4.1_F4.1_T4.1]	> 2300
ACAAACUGCUUAUUAUUAACAAAC (ssRNA) [Ie_S3_P5E.1_K5.1_C5.1_H5.1_[+2CT]_A5.1_F5.1_T5.1]	> 2300
Ie_S2_P5E.1_K5.1_C5.1_H5.1_A5.1_F5.1_[+10TTCC]_T5.1 (ssRNA) RNA: UUUGAUUAAUAUGAUAUCGUUCUUUCUUGUAUUAUUAUUCCUUCUUUCUCGAUAUCAUAUUAAUCUUU	2.02
ACAAACUGUAUUCCUAUUAACAAAC (ssRNA) [Ie_S3_P4E.1_K4.1_C4.1_H4.1_[+4TTCC]_A4.1_F4.1_T4.1]	9.85
ACAAACUGUACUCUUAUUAACAAAC (ssRNA) [Ie_S3_P5E.1_K5.1_C5.1_H5.1_[+4CTC]_A5.1_F5.1_T5.1]	7.73
ACAAACUGCUAUAUUAACAAAC (ssRNA) [Ie_S3_P4E.1_K4.1_C4.1_H4.1_[+2C]_A4.1_F4.1_T4.1]	672
Ie_S2_P5E.1_K5.1_C5.1_H5.1_A5.1_F5.1_[+10TTC]_T5.1 (ssRNA) RNA: UUUGAUUAAUAUGAUAUCGUUCUUUCUUGUAUUAUUAUUCUUCUUUCUCGAUAUCAUAUUAAUCUUU	2.01
Ie_S2_P5E.1_K5.1_C5.1_H5.1_A5.1_F5.1_[+10TCT]_T5.1 (ssRNA) RNA: UUUGAUUAAUAUGAUAUCGUUCUUUCUUGUAUUAUUAUCUUUCUUUCUCGAUAUCAUAUUAAUCUUU	3.7
Ie_S2_P5E.1_K5.1_C5.1_H5.1_A5.1_F5.1_[+10TTT]_T5.1 (ssRNA) RNA: UUUGAUUAAUAUGAUAUCGUUCUUUCUUGUAUUAUUAUUUUUCUUUCUCGAUAUCAUAUUAAUCUUU	1.17
ACAAACUGUAUAUUCCUAACAAAC (ssRNA) [Ie_S3_P4E.1_K4.1_C4.1_H4.1_A4.1_[+7TCC]_F4.1_T4.1]	7.23
ACAAACUGCCUCUAUUAUUAACAAAC (ssRNA) [Ie_S3_P5E.1_K5.1_C5.1_H5.1_[+2CCTC]_A5.1_F5.1_T5.1]	> 2300
ACAAACUGUCCCUUAUUAUUAACAAAC (ssRNA) [Ie_S3_P5E.1_K5.1_C5.1_H5.1_[+3CCCTT]_A5.1_F5.1_T5.1]	698
ACAAACUGUCCUCAUAUUAACAAAC (ssRNA) [Ie_S3_P4E.1_K4.1_C4.1_H4.1_[+3CCTC]_A4.1_F4.1_T4.1]	650
ACAAACUGUAUAUUUCUCAACAAAC (ssRNA) [Ie_S3_P4E.1_K4.1_C4.1_H4.1_A4.1_F4.1_[+8TCTC]_T4.1]	8.77
ACAAACUGUCCUAUUAUUAACAAAC (ssRNA) [Ie_S3_P5E.1_K5.1_C5.1_H5.1_[+2TCC]_A5.1_F5.1_T5.1]	101
ACAAACUGUAUAUUCCCUAACAAAC (ssRNA) [Ie_S3_P4E.1_K4.1_C4.1_H4.1_A4.1_F4.1_[+8CCCT]_T4.1]	6.57
